Reference: paper PMC3682478

Key:
Experiment in all cases: kinetic pause assay
[1] = target: NusA NTD;RNA polymerase core (Escherichia coli;Escherichia coli, UniProt P0AFF6;P0A7Z4;P0A8V2;P0A8T7 1-137;1-329;1-1342;1-1407, |)
[2] = target: NusA NTD-S1;RNA polymerase core (Escherichia coli;Escherichia coli, UniProt P0AFF6;P0A7Z4;P0A8V2;P0A8T7 1-200;1-329;1-1342;1-1407, |)
[3] = target: NusA NTD-S1-KH;RNA polymerase core (Escherichia coli;Escherichia coli, UniProt P0AFF6;P0A7Z4;P0A8V2;P0A8T7 1-348;1-329;1-1342;1-1407, |)
Chain of NusA NTD-S1-KH;RNA polymerase core (P0AFF6 1-348, chain 1 of 4): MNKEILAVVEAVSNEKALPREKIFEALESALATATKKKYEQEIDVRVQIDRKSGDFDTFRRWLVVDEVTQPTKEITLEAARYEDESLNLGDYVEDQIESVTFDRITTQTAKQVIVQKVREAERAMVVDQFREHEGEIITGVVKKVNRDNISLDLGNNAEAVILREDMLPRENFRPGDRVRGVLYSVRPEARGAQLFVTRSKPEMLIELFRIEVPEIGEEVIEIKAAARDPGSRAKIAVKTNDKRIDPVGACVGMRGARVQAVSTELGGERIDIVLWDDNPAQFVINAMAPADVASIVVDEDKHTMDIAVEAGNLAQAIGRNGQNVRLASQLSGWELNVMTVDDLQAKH
Chain of NusA NTD-S1-KH;RNA polymerase core (P0A7Z4 whole entry, chain 2 of 4): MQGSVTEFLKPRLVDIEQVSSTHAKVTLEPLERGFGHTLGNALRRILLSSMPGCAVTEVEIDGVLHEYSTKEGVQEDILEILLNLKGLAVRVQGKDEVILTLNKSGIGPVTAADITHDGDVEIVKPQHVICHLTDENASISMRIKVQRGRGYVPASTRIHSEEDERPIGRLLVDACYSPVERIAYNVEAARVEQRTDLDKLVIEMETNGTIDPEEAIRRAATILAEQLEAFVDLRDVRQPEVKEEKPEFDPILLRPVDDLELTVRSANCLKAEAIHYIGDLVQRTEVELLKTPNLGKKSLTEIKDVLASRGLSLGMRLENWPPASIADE
Chain of NusA NTD-S1-KH;RNA polymerase core (P0A8V2 whole entry, chain 3 of 4): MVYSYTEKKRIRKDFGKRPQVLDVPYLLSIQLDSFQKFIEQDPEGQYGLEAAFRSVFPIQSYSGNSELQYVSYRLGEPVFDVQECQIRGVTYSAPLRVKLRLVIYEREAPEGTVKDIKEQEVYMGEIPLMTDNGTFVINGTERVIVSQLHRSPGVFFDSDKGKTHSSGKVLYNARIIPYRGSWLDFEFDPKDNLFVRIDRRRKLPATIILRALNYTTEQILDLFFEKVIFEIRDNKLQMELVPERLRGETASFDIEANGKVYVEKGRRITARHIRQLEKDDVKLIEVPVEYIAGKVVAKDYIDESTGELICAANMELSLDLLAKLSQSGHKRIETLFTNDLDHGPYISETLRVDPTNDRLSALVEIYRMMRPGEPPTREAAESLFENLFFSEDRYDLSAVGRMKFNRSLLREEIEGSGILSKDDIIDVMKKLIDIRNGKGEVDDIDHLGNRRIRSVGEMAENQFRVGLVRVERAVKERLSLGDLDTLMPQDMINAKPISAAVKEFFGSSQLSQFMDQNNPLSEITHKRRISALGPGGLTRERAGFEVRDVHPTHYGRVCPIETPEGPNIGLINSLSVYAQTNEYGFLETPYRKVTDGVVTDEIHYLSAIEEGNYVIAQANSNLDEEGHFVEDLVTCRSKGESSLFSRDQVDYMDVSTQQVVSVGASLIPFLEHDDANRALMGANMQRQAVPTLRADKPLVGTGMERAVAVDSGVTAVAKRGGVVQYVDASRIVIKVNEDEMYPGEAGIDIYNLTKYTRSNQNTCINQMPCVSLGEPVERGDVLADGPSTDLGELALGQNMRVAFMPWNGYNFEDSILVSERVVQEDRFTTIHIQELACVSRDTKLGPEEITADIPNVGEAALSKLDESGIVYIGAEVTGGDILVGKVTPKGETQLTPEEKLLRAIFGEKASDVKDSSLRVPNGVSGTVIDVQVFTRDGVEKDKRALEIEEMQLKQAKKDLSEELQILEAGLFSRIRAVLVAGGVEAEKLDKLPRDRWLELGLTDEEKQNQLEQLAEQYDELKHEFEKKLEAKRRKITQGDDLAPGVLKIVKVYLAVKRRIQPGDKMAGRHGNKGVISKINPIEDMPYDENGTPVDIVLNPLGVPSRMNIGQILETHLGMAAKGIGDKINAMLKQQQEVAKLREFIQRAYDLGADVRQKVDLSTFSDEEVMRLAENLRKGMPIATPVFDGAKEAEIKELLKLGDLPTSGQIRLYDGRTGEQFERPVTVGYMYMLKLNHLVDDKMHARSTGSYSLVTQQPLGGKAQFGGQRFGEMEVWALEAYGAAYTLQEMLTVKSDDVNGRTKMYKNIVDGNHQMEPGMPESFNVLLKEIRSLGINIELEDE
Chain of NusA NTD-S1-KH;RNA polymerase core (P0A8T7 whole entry, chain 4 of 4): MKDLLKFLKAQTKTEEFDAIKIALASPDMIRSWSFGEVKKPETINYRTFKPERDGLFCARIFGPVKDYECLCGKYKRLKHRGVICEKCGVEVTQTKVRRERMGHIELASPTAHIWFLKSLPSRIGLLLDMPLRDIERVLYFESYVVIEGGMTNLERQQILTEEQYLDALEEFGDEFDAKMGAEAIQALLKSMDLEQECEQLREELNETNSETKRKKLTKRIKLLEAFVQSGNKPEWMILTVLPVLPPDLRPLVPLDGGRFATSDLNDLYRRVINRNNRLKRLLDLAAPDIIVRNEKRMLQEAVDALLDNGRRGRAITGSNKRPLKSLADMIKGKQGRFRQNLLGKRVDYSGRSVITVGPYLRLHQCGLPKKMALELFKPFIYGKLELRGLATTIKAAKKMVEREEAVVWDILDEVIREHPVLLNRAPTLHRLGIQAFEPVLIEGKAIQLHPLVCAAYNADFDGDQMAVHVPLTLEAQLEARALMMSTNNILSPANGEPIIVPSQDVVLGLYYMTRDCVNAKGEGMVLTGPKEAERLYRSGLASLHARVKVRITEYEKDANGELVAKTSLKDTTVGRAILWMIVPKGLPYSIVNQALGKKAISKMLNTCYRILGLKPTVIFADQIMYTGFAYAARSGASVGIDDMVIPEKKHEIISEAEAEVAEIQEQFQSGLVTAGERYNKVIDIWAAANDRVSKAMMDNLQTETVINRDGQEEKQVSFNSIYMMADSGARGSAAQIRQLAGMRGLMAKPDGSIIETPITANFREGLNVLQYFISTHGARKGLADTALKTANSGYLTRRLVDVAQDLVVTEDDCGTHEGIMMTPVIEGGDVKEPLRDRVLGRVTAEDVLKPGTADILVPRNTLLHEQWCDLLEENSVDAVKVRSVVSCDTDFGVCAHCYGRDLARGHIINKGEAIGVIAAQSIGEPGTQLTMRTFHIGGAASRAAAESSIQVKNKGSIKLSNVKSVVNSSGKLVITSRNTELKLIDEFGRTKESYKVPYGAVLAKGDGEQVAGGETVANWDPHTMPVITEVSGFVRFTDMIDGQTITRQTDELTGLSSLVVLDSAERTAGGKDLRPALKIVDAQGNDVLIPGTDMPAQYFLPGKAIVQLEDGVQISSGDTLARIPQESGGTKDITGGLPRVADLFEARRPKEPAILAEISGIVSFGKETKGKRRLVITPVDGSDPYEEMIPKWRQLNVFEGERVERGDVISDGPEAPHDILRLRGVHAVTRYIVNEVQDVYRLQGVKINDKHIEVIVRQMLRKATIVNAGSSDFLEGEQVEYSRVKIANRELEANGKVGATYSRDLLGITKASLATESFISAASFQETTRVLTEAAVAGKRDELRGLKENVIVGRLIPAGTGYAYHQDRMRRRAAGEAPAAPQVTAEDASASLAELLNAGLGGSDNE

B1: his PTC scaffold (RNA at U29) (mixed)
DNA 1: GGTCAGTACGTCCATTCGATCTTCGGAAGAGATTCAGAG
DNA 2: CTCTGAATCTCTTCCAGCACACATCAGGACGTACTGACC
RNA: CCUGACUAGUCUUUCAGGCGAUGUGUGCU
B1 gave a Ki [1] of 55.4 ± 27.8 nM, a Ki [2] of 74.6 ± 19.4 nM and a Ki [3] of 11.8 ± 8.7 nM.
